Experiments:
[1] = molecular target: FGFR3-IIIc stably expressed on FDCP cells (UniProt P22607); experiment: cell-based or functional assay
[2] = molecular target: FGFR1 extracellular domain, immobilized (R1-Fc) (UniProt P11362); experiment: functional ELISA on immobilized FGFR
[3] = molecular target: FGFR2 extracellular domain, immobilized (R2-Fc) (UniProt P21802); experiment: functional ELISA on immobilized FGFR
[4] = molecular target: FGFR3 extracellular domain, immobilized (R3-Fc) (UniProt P22607); experiment: functional ELISA on immobilized FGFR
[5] = molecular target: FGFR1 extracellular domain, immobilized (R1-Fc) (UniProt P11362); experiment: ELISA: biotinylated ligand on immobilized FGFR-Fc, HRP-streptavidin
[6] = molecular target: FGFR2 extracellular domain, immobilized (R2-Fc) (UniProt P21802); experiment: as above
[7] = molecular target: FGFR3 extracellular domain, immobilized (R3-Fc) (UniProt P22607); experiment: as above

Sequence of FGF-18^Δ31 (O76093 other isoform, or with tags, fused parts or gaps mutant limits assumed): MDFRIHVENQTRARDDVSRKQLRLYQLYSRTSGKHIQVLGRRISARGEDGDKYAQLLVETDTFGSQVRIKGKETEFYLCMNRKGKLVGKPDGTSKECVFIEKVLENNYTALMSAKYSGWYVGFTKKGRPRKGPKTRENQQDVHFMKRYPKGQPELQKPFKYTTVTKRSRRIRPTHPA
Sequence of FGF-18 (recombinant wild type, mature form without the signal peptide) (O76093 other isoform, or with tags, fused parts or gaps): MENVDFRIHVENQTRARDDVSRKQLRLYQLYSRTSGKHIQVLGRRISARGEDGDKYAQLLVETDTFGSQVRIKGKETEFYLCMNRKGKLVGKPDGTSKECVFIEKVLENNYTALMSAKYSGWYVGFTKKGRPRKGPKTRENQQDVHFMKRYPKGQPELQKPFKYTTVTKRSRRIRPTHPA
Sequence of FGF-18^Δ51 (O76093 other isoform, or with tags, fused parts or gaps mutant limits assumed): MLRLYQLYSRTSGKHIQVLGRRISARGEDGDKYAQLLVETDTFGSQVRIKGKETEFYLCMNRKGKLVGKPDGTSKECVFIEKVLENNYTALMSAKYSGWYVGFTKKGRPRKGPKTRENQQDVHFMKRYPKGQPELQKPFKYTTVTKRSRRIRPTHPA
Sequence of FGF-18^Δ37 (O76093 other isoform, or with tags, fused parts or gaps mutant limits assumed): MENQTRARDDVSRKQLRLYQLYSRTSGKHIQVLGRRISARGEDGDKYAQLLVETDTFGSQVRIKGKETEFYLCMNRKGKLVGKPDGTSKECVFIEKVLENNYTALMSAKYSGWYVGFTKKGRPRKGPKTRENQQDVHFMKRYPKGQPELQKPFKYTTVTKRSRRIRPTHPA
Sequence of FGFR3-IIIc stably expressed on FDCP cells (P22607 23-806): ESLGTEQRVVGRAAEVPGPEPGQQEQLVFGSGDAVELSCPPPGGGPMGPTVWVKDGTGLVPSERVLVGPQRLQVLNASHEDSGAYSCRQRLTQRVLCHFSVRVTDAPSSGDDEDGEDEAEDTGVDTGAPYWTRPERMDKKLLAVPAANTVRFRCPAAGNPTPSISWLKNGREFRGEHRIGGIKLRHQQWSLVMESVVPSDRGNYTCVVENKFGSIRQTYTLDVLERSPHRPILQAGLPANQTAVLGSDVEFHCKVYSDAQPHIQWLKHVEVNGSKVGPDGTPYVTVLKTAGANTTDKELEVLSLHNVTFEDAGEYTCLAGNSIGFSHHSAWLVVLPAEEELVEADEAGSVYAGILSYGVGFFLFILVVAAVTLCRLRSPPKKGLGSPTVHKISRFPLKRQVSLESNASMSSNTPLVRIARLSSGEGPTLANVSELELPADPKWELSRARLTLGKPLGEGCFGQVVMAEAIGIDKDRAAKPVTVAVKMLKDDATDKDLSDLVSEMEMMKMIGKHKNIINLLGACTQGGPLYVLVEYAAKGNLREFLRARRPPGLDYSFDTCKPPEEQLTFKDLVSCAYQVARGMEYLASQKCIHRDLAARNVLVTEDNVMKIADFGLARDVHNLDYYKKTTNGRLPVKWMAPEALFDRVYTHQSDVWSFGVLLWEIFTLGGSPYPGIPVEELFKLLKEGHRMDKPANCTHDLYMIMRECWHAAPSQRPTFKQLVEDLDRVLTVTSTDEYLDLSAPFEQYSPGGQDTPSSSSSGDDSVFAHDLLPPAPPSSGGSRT
Sequence of FGF-18^Δ45 (O76093 other isoform, or with tags, fused parts or gaps mutant limits assumed): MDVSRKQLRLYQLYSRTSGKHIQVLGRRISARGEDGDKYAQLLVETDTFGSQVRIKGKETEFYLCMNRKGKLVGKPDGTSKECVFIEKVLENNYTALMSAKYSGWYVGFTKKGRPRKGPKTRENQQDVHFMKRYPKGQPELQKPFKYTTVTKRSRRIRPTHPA
Sequence of FGF-18^Δ33 (O76093 other isoform, or with tags, fused parts or gaps mutant limits assumed): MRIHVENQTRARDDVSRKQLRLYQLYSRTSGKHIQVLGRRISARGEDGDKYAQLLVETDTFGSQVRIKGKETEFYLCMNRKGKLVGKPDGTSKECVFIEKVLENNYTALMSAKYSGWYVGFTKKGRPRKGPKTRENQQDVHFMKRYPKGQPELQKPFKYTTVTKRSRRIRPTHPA

## FGF-2 wild type (from UniProt P09038 134-288) (ligand)
[1]
  EC50 scores of FGF ligands in cell proliferation of FDCPR3: 1.19 ng/mL

## FGF-18 (recombinant wild type, mature form without the signal peptide) (from UniProt O76093 29-207) (ligand)
[2]
  EC50: 22.8 ng/mL
[3]
  EC50: 8.76 ng/mL
[4]
  EC50: 6.59 ng/mL
[5]
  EC50: 28.2 ng/mL
[6]
  EC50: 9.51 ng/mL
[7]
  EC50: 5.04 ng/mL

## FGF-18^Δ31 (from UniProt O76093 32-207) (ligand)
[2]
  EC50: 24.4 ng/mL
[3]
  EC50: 11.2 ng/mL
[4]
  EC50: 8.55 ng/mL

## FGF-18^Δ33 (from UniProt O76093 34-207) (ligand)
[4]
  EC50: 8.27 ng/mL

## FGF-18^Δ37 (from UniProt O76093 38-207) (ligand)
[4]
  EC50: 9.75 ng/mL
[7]
  EC50: 5.94 ng/mL

## FGF-18^Δ45 (from UniProt O76093 46-207) (ligand)
[7]
  EC50: 9.16 ng/mL

## FGF-18^Δ51 (from UniProt O76093 52-207) (ligand)
[2]
  EC50: 41.9 ng/mL
[3]
  EC50: 43.5 ng/mL
[4]
  EC50: 9.99 ng/mL
[7]
  EC50: 10.2 ng/mL

Source: patent US20130225493A1
